# Measured values taken from patent US7314724B2, “Therapeutic applications of laminin and laminin-derived protein fragments” (University of Washington, priority 1996, dated 2008).
# Target: T1, Aβ (1-40) (Homo sapiens, UniProt P05067)
# T1 construct: 2 μg of Aβ (1-40)(Bachem Inc., Torrance, Calif. USA; Lot #WM365); purchased Bachem Inc., Torrance, Calif; Lot #WM365
# Experiment: Solid phase binding immunoassay of laminin to substrate bound Aβ (1-40)
# Settings: one-site model, single binding constant; read-out: apparent dissociation constant Kd, binding to immobilized Aβ (1-40)
# Method: 2 μg of Aβ (1-40)(Bachem Inc., Torrance, Calif. USA; Lot #WM365) in 40 μl of Tris-buffered saline (TBS)(pH 7.0) was allowed to bind overnight at 4° C. to microtiter wells (Nunc plates, Maxisorb). The next day all of the microtiter wells were blocked by incubating with 300 μl of Tris-buffered saline containing 100 mM Tris-HCl, 50 MM NaCl, 0.05% Tween-20, and 3 mM NaN3 (pH 7.4)(TTBS) plus 2% bovine serum albumin (BSA). Various dilutions (ie. 1:10, 1:30, 1:90, 1:270, 1:810, 1:2430 and 1:7290) of Engelbreth-Holm-Swarm (EHS) mouse tumor laminin (1 mg/ml)(Sigma Chemical Co., St. Louis, Mo., USA) in 250 μl of TBS (pH 7.4) were placed in wells (in triplicate) either containing substrate bound Aβ (1-40) or blank, and allowed to bind overnight at 4° C. overnight. […] The reaction was stopped with 50 μl of 4N H2SO4 and read on a Model 450 microplate reader (Biorad, Hercules, Calif. USA) at 490 nm. Data points representing a mean of triplicate determinations were plotted and the affinity constants (ie. Kd) were determined using Ultrafit (version 2.1, Biosoft, Cambridge, U.K.) as described below.
# The binding data were analyzed assuming a thermodynamic equilibrium for the formation of the complex BL, from the laminin ligand in solution, L, and the uncomplexed Aβ adsorbed to the microtiter well, B, according to the equation: Kd=[B]×[L]/[BL]. […]
# T1 sequence (P05067 672-711 limits assumed): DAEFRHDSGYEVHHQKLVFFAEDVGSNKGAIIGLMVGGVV
substance,measurement,value
"laminin: Engelbreth-Holm-Swarm (EHS) mouse tumor laminin (Sigma); 850 kDa basement membrane glycoprotein of A, B1 and B2 chains",Kd,2.7 nM
